In PMC9243169:

Key:
LANTVATL peptide = biological target: T1, LANTVATL peptide; test: size-exclusion chromatography of in vitro assembled heavy chain/β2m/ligand complex; details: chain shown with the change; parent: est. 160; read off a plot
T1 chain: LANTVATL

[1] = biological target: T2, N-myristoylated 4-mer lipopeptide Myr-GAAL; test: as above; details: chain shown with the change; parent: est. 160; read off a plot
T2 chain: GAAL

B1: HLA-C∗14:02 heavy chain, ectodomain (soluble form) S9Y (protein)
chain: AGSHSMRYFYTSVSRPGRGEPRFIAVGYVDDTQFVRFDSDAASPRGEPRAPWVEQEGPEYWDRETQKYKRQAQTDRVSLRNLRGYYNQSEAGSHTLQWMFGCDLGPDGRLLRGYDQSAYDGKDYIALNEDLRSWTAADTAAQITQRKWEAAREAEQRRAYLEGTCVEWLRRYLENGKETLQRAEHPKTHVTHHPVSDHEATLRCWALGFYPAEITLTWQWDGEDQTQDTELVETRPAGDGTFQKWAAVVVPSGEEQRYTCHVQHEGLPEPLTLRWEP
- response (LANTVATL peptide): 180 mAU
- response [1]: 30 mAU
